For assay [1], the target named is T1, human HER1 (full length, on cells) (human, UniProt P00533 25-1210).
T1 construct: HEK293 cells transfected with full length HER1, fixed and embedded (IHC); also called EGFR
Kind of assay: IHC (Ventana Benchmark XT) on formalin-fixed, paraffin-embedded HEK293 cells transiently transfected with full length HER1. The protocol: All selected clones were tested for reactivity and specificity in IHC. […] After an additional fixation in formalin overnight the Agarose blocks were embedded in paraffin. Untransfected HEK293 cells were used as negative controls and treated accordingly to the transfected cells. After paraffin embedding 3 μm thin sections were prepared using a microtome. The sections were mounted on glass microscopy slides and dried for 2 h. All further steps of the immunohistochemical staining procedure were carried out using a Ventana Benchmark XT. The slides were dewaxed and antigen retrieval was performed by applying heat for 1 hour. For antigen retrieval the Ventana buffer CC1 was used. The antibodies were used at a concentration of 1 μg/ml. For the detection of bound antibody the Ventana UltraView detection kit was used.

For assay [2], the target named is T2, human HER3 Extracellular Domain (ECD) (human, UniProt P21860 20-643).
T2 construct: human recombinant, 68 kDa; 'closed' conformation without ligand; also called Her3 ECD; Her-3 ECD
Kind of assay: SPR Biacore 3000, antibody captured, 25 C. As for the experimental part:
(§1) A CMS series sensor was mounted into the system and was normalized in HBS-ET buffer (10 mM HEPES pH 7.4, 150 mM NaCl, 3 mM EDTA, 0.005% w/v Tween 20) according to the manufacturer's instructions. The sample buffer was the system buffer supplemented with 1 mg/ml CMD (Carboxymethyldextran). The system operated at 25° C. 10000 RU RAM-Fcγ (relative units of Fcγ-fragment Rabbit Anti-Mouse IgG/Jackson Laboratories) were immobilized according to the manufacturer's instructions using EDC/NHS chemistry on all flow cells. The sensor was deactivated using 1M ethanolamine. Analytes in solution were injected at 100 μl/min at different concentration steps of 0 nM, 1.1 nM, 3.7 nM, 11.1 nM, 33.1 nM and 90 nM for 2 min. The dissociation was monitored for 5 min. Acidic regeneration of the sensor surface was achieved using three consecutive injections of 10 mM Glycine pH 1.7 at 30 μl/min for 60 sec. Kinetic data were evaluated according to a Langmuir fit.
A general note: In SPR one partner is held on a chip, and binding of the other changes the refractive index at the surface.

Another assay addresses T3, HER3 ECD-HRG complex (human, UniProt P21860 20-643).
T3 construct: HER3 ECD preincubated with a 3- to 6-fold molar excess of Heregulin ('open' conformation); biotinylated Her3-ECD in the ribosome display; also called HER3-ECD/HRG1β
Kind of assay: SPR Biacore 3000, antibody captured, 25 C. As for the experimental part:
as §1

The next assay has as its target T4, TtSlyD-FKBP-Her3.
T4 construct: N-terminal Met present or not; also called thermo SlyD-Her3; ttSlyD-Her3
T4 chain: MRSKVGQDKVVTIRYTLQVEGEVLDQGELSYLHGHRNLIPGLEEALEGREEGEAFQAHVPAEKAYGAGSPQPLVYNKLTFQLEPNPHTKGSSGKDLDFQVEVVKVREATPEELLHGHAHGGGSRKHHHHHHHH
Description: SPR Biacore 3000, antibody captured, 25 C. As for the experimental part: as §1

The target in another assay is T5, TgSlyDΔIF.
T5 construct: scaffold without hairpin insert, negative control
T5 chain: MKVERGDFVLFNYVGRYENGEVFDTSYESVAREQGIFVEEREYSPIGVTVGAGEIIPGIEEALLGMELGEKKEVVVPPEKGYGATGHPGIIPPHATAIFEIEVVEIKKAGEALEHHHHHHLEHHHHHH
Kind of assay: ELISA, coated antigen. The protocol: For the ELISA the screening an antigen down format was used. […] Hybridoma Supernatant was added to the plates and incubated for 1 h at room temperature. Bound antibody was detected with a HRP-labeled F(ab′)₂ goat anti-mouse Fcγ (Dianova) and ABTS (Roche) was used as a HRP-substrate.
As negative controls the scaffold proteins TtSlyDcas and TgSlyDΔIF were used.

The target in assay [3] is T6, human HER4 Extracellular Domain (ECD) (human, UniProt Q15303 26-651).
T6 construct: also called Her4 ECD; HER4-ECD
T6 sequence: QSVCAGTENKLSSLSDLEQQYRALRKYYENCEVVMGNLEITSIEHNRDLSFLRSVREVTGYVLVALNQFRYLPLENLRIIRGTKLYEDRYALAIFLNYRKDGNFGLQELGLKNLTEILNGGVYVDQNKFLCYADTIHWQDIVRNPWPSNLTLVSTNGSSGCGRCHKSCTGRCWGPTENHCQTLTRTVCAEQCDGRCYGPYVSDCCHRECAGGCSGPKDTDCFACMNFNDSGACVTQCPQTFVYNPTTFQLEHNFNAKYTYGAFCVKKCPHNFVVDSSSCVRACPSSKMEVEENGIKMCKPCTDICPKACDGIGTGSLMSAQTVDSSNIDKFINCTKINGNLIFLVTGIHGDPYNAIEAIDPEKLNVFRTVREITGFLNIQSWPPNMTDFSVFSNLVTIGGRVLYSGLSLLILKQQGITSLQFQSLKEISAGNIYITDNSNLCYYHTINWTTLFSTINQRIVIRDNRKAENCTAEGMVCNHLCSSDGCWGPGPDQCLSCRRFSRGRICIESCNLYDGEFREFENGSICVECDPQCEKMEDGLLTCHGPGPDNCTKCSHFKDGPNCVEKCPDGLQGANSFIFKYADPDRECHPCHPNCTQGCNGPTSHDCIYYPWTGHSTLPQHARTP
Kind of assay: SPR Biacore T100, antibody captured, 25 C; SPR at 25 C, antibody captured, HER4-ECD without HRG. As for the experimental part:
A CM5 series sensor was mounted into the system and was normalized in HBS-ET buffer (10 mM HEPES pH 7.4, 150 mM NaCl, 3 mM EDTA, 0.005% w/v Tween 20) according to the manufacturer's instructions. The sample buffer was the system buffer supplemented with 1 mg/ml CMD (Carboxymethyldextran, Sigma #86524). The system operated at 25° C. 6500 RU RAM-Fcγ (relative units of Fcγ-fragment RamIgG, GE Healthcare) were immobilized according to the manufacturer's instructions using EDC/NHS chemistry on all four flow cells. The sensor was deactivated using 1M ethanolamine.
The binding activity of the respective antibody against the analytes was kinetically tested. Antibodies were captured at 35 nM concentration by a 1 min injection at 5 μl/min. The flow rate was set to 100 μl/min.
Analytes in solution were injected at different concentration steps of 0 nM, 1.1 nM, 3.7 nM, 11.1 nM, 33.1 nM and 90 nM for 3.5 min. The dissociation was monitored for 15 min. Where possible, kinetic signatures were evaluated according to a Langmuir fit.

B1: anti-HER3/HER4 antibody M-05-74 (antibody, V domains shown)
VH: QVQLQQSGAELAKPGASVKMSCKTSGYTLTDYWIHWVKQRPGQGLEWIGYINPYTGYTESNQKFKDKATLTADKSSNTAYIQLSSLTSEDSAVYYCARPYYYGDYWGQGTTLTVSS
VL: QIVLTQSPAIMSASPGERVTITCSASSSVSYMHWFQQKPGTSPKLLIYSTSNLASGVPARFSGSGSGTSYSLTISRMEAEDAATYYCQQRSSYPFTFGSGTKLEIK
notes: murine monoclonal IgG from hybridoma (supernatant or purified), bivalent; also called M-074; M-5-74
Consider B1, for which the binding result in assay [1] is “no binding (tested: 1 µg/ml)”. In assay [2], the “BL (Binding Late)” value was 36 RU, the “MR (Molar Ratio)” value worked out at 0.2, the kon was 20400 M⁻¹ s⁻¹ and the t/2-diss was 28 min. For the same molecule, in the assay with HER3 ECD-HRG complex, the “BL (Binding Late)” value worked out at 199 RU, the “MR (Molar Ratio)” value worked out at 0.8, the kon turned out to be 66000 M⁻¹ s⁻¹ and the t/2-diss is 18 min. Also, in the assay with TtSlyD-FKBP-Her3, the “BL (Binding Late)” value was 68.1 RU, the “MR (Molar Ratio)” value was found to be 1.5, the kon turned out to be 87500 M⁻¹ s⁻¹ and the t/2-diss worked out at 4.9 min. The ELISA signal with TgSlyDΔIF was 0.02. In assay [3], this molecule gave a Kd of 150 nM, a koff of 0.001 s⁻¹ and a kon of 6700 M⁻¹ s⁻¹.

The kon is a measure of how fast the partners come together. Low readings indicate slow association, high ones fast association. What is called Kd is the equilibrium constant for the complex coming apart. Low values mean a tighter complex, high ones a looser complex. The koff is the rate constant with which the complex falls apart.

(Values after patent US20170233490A1 (Hoffmann-La Roche, published 2017).)
